4 molecules from US20240190966A1 can be followed below.

Residue numbers refer to the chain shown, from its start. Values joined by “and” are separate entries in the source; they are usually repeats but may differ in a detail not shown here. Equal values may be shown once. Read-outs that look alike come from different tables or passages of the source.

Assay [1] addresses T1, 27mer cyno CD3 polypeptide conjugated to biotin (cynomolgus monkey).
T1 sequence (peptide, biotin conjugated (site not stated)): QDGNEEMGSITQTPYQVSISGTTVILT
In words: BIAcore T200 SPR; biotinylated 27mer CD3 peptide on SA chip; TDB flowed at 37 C. (Surface plasmon resonance follows binding to a sensor surface in real time, without labels.)

Assay [2] has the same target. The description is as above. The source holds these as a separate data set.
Assay [3] has as its target cynomolgus monkey LY6G6D-Fc (cynomolgus monkey). Kind of assay: BIAcore SPR; LY6G6D-Fc immobilized; TDB flowed at 37 C.
The target is the same in assay [4]. In words: BIAcore SPR; two-cell TDB with 38E4.v1 arm.
The target is the same in assay [5]. Kind of assay: BIAcore SPR; LY6G6D-Fc immobilized; TDB flowed at 37 C. The source holds these as a separate data set.

B1: LY6G6D TDB assembled using a one-cell system, anti-LY6G6D 20A12.QNTv12 arm (one-cell) and anti-CD3 38E4v1 (WT) arm (bispecific antibody, V domains shown)
VH 1: EVQLLESGGGLVQPGGSLRLSCAASGFDFVNNAMIWVREAPGKGLEWVSALSFADNTAYYATWASGRFTISRDSSKTTVYLQMNSLRAEDTAVYYCMRGDLWGPGTLVTVSS
VL 1: DIQMTQSPSTLSASVGDRVTITCQASESITRYLNWYQKKPGKAPKLLIYDASKLPSGVPSRFSGSGSGTEFTLTISSLQPDDFATYYCQSTSFRGRSYQNTFGGGTKVEIK
VH 2: EVQLVQSGAEVKKPGASVKVSCKASGFTFTSYYIHWVRKAPGQGLEWIGWIYPENDNTKYNEKFKDRVTITADTSTSTAYLELSSLRSEDTAVYYCARDGYSRYYFDYWGQGTLVTVSS
VL 2: DIVMTQSPDSLAVSLGERATINCKSSQSLLNSRTRKNYLAWYQEKPGQSPKLLIYWTSTRKSGVPDRFSGSGSGTDFTLTISSLQAEDVAVYYCKQSFILRTFGQGTKVEIK
On to B1, for which, in assay [1], the Kd (in general, the constant that tells how readily two partners part at equilibrium) was 15.4 nM and 16.5 nM; the koff (commonly the rate constant with which the complex falls apart) was 0.0399 s⁻¹ and 0.0437 s⁻¹; the kon (in general, a measure of how fast the partners come together) is 2.6e+06 M⁻¹ s⁻¹ and 2.65e+06 M⁻¹ s⁻¹. In addition, in assay [2], the Kd worked out at 15.9 nM.

B2: LY6G6D TDB assembled using a one-cell system, anti-LY6G6D 20A12.QNTv12 arm (one-cell) and anti-CD3 38E4.v1 MD4 arm (bispecific antibody, V domains shown)
VH 1: B1 VH 1
VL 1: B1 VL 1
VH 2: B1 VH 2
VL 2: B1 VL 2 with S49P, T57A
As to B2, the Kd in assay [3] was 2.62 nM; in assay [1], 14 nM and 14.7 nM; in assay [2] it was 14.4 nM. Besides, the koff is 0.000574 s⁻¹ in assay [3]; 0.0433 s⁻¹ and 0.0426 s⁻¹ in assay [1]. For the same molecule, the kon in assay [3] was 219000 M⁻¹ s⁻¹; in assay [1], 3.09e+06 M⁻¹ s⁻¹ and 2.89e+06 M⁻¹ s⁻¹.

B3: LY6G6D TDB comprising the anti-LY6G6D 20A12.QNTv12 arm (two-cell) and the anti-CD3 38E4.v1 arm (bispecific antibody, V domains shown)
VH 1: B1 VH 1 with E39Q
VL 1: B1 VL 1 with K38Q
VH 2: B1 VH 2 with K39Q
VL 2: B1 VL 2 with E44Q
In the case of B3, the Kd was 2.29 nM in assay [4]; 2.29 nM in assay [5]; 1.92 nM in assay [3]; 13 nM and 16.5 nM in assay [1]; 14.8 nM in assay [2]. Also, the koff was 0.00038 s⁻¹ in assay [5]; 0.000444 s⁻¹ in assay [3]; 0.0337 s⁻¹ and 0.0364 s⁻¹ in assay [1]. For the same molecule, the kon in assay [5] is 166000 M⁻¹ s⁻¹; in assay [3], 231000 M⁻¹ s⁻¹; in assay [1], 2.6e+06 M⁻¹ s⁻¹ and 2.21e+06 M⁻¹ s⁻¹.

B4: LY6G6D TDB assembled using a one-cell system, anti-LY6G6D 20A12.QNTv12 arm (one-cell) and anti-CD3 38E4.v1 MD1 arm (bispecific antibody, V domains shown)
VH 1: B1 VH 1
VL 1: B1 VL 1
VH 2: B1 VH 2
VL 2: B1 VL 2 with S49P, T57A, K61E, K95T
In assay [3], B4 yielded a Kd of 3.63 nM, a koff of 0.000512 s⁻¹ and a kon of 141000 M⁻¹ s⁻¹. Further, in assay [1], the Kd was 26.6 nM and 25.6 nM; the koff is 0.0383 s⁻¹ and 0.0376 s⁻¹; the kon is 1.44e+06 M⁻¹ s⁻¹ and 1.47e+06 M⁻¹ s⁻¹. In assay [2], this molecule returned a Kd of 26.1 nM.
